# Measurements taken from the supplement of paper PMC9732359.
# ± gives the uncertainty stated by the source.
# Test: protein stability index of a GFP-peptide fusion (yeast GPS) (PSI 1-4); higher = more stable; sorted into four equal gates, so the index is relative within each strain
# Outline: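 The protein stability index combines read frequencies across sorting gates, each weighted by its gate number and then summed. To obtain those frequencies, a pooled yeast library of GFP fusions to tiled 17-residue yeast protein peptides, on a plasmid also expressing Cherry, was grown to mid-log phase in leucine-free medium. The cells were sorted into four equal gates by GFP/Cherry ratio before plasmid amplification by PCR and Illumina sequencing.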
Sequence,protein stability index (doa10∆),protein stability index (pdr5∆),protein stability index (san1∆),protein stability index (ubr1∆)
QVLVCTATLAWGVNLPA [BRR2],1.53 ± 0.11,1.91 ± 0.088,2.1 ± 0.089,2.12 ± 0.059
IPYGPDFDNIEFKKIPR [SEC65],3.21 ± 0.093,3.1 ± 0.11,2.87 ± 0.075,3.17 ± 0.084
ATIRETYEIICDQTKSV [RRP43],2.87 ± 0.06,3 ± 0.065,2.8 ± 0.063,2.98 ± 0.045
LKRSTELLETVSLTKRK [YIL149C/MLP2],1.66 ± 0.056,2.06 ± 0.045,2.09 ± 0.079,1.6 ± 0.027
KLVRDSFTSATERHIQV [PRE7],2.78 ± 0.075,2.9 ± 0.055,3.17 ± 0.055,2.37 ± 0.057
AGETLILDGLTVRLVNL [SRB2],2.43 ± 0.071,2.97 ± 0.082,2.46 ± 0.073,2.66 ± 0.052
LWSGKQILSVAIPNGIH [RPO21],1.57 ± 0.066,1.59 ± 0.051,1.37 ± 0.088,1.71 ± 0.087
KGYVFKISGGNDKQGFP [RPS6A],2.62 ± 0.068,2.89 ± 0.071,2.99 ± 0.052,3 ± 0.054
PLRENTNVLDVKDKEED [YDL116W/NUP84],3.07 ± 0.082,3.11 ± 0.1,3.25 ± 0.065,2.99 ± 0.11
PTEMEPDLDTECFISMQ [SWI1],3.27 ± 0.055,3.39 ± 0.052,3.23 ± 0.047,3.26 ± 0.058
LKIYAQIEKKEIKKMII [YCG1],3.06 ± 0.059,2.8 ± 0.051,2.89 ± 0.057,3.01 ± 0.07
MVTSNVVLVSGEGERFT [SKP1],2.11 ± 0.14,2.56 ± 0.086,2.26 ± 0.12,1.73 ± 0.081
LLLAANTHLGARNVQVH [RPS0A],1.93 ± 0.04,1.21 ± 0.039,1.17 ± 0.061,1.13 ± 0.036
IQNKKIQEQRVKDKQSK [RPN8],1.97 ± 0.11,2.78 ± 0.13,,2.92 ± 0.13
PNNSRDDYKDLTCSLYE [IRR1],3.11 ± 0.069,2.88 ± 0.069,3.18 ± 0.052,3.24 ± 0.087
RKLINYTKKHLSSHSST [RPN4],1.34 ± 0.063,1.71 ± 0.049,1.41 ± 0.088,1.28 ± 0.04
NMLPQRQSSVGSLNATN [SNF2],2.8 ± 0.082,3.3 ± 0.073,2.78 ± 0.052,3.08 ± 0.046
DLALKMGVPIYGIVAMA [FAS2],1.85 ± 0.27,1.17 ± 0.093,1.36 ± 0.28,1.18 ± 0.078
QKQWDDIAFVLNNLPYK [YCS4],2.48 ± 0.077,3.09 ± 0.082,2.97 ± 0.11,3.18 ± 0.086
LLRPSSKVIIKFLQVMQ [RPS22B],1.87 ± 0.069,1.61 ± 0.044,1.72 ± 0.13,1.82 ± 0.058
NTEKDYKMVQEQLSKQR [SMC2],3.27 ± 0.065,3.17 ± 0.072,3.25 ± 0.045,3.23 ± 0.043
TGESEESSSEDDYEDQD [IRR1],3.5 ± 0.17,3.34 ± 0.16,,3.57 ± 0.26
DMLLHKYYIVSSSKSMI [SRB8],1.26 ± 0.074,1.47 ± 0.062,1.7 ± 0.14,1.61 ± 0.079
EQILQWVTEVLGNDIPH [BRR2],3.07 ± 0.07,3.31 ± 0.063,2.88 ± 0.047,3.19 ± 0.058
VHLSNGYKMIPGAKPLQ [FAS1],1.74 ± 0.072,2.02 ± 0.076,1.8 ± 0.088,1.81 ± 0.05
ELNDNPAWFNNPRKRAI [YMR153W/NUP53],3.09 ± 0.089,2.96 ± 0.066,2.48 ± 0.037,2.98 ± 0.051
NAKDIQIPVYDTFDGSD [FAS1],2.47 ± 0.078,2.56 ± 0.07,2.07 ± 0.052,2.29 ± 0.064
GEHEKSNILLNSLTKYP [MED1],1.45 ± 0.08,1.92 ± 0.076,1.14 ± 0.25,1.69 ± 0.068

Sequence,protein stability index (doa10∆),protein stability index (pdr5∆),protein stability index (san1∆),protein stability index (ubr1∆)
PKLESVKWQYDPNNPVD [SNF12],2.38 ± 0.059,2.81 ± 0.055,2.21 ± 0.067,2.55 ± 0.031
ADNVDKILEQFEYVLYP [FAS2],2.05 ± 0.067,1.94 ± 0.089,2.17 ± 0.094,2.57 ± 0.08
TGVVYNVTKSSVGVIIN [RPL21A],2.07 ± 0.09,2.6 ± 0.057,1.95 ± 0.095,2.18 ± 0.067
NKDMIKNLVKVLESRVN [CSN12],2.32 ± 0.23,2.63 ± 0.15,1.58 ± 0.18,1.75 ± 0.15
EWRKSAIANTLLYLRLK [PRP8],1.85 ± 0.063,1.54 ± 0.051,1.41 ± 0.095,1.37 ± 0.047
IGLIALSATGTRSAKKM [YJR042W/NUP85],,,3 ± 0.15,
STTNSDVSLLLQRDLFI [RGR1],2.76 ± 0.093,3.06 ± 0.1,2.81 ± 0.067,3.02 ± 0.077
MESEEVPLTKRYQHLEK [PCI8],2.85 ± 0.075,3.07 ± 0.067,2.92 ± 0.048,3.14 ± 0.065
LPSPESLKTKLNSNIRA [SNF5],1.52 ± 0.048,1.71 ± 0.043,2.15 ± 0.061,2.1 ± 0.035
SAYVKAFYQKGNKLVEL [SMC1],1.45 ± 0.074,1.99 ± 0.051,2.12 ± 0.097,1.58 ± 0.052
ITNTDETITTKRVPNPN [SWP82],3.09 ± 0.077,3.25 ± 0.098,3.13 ± 0.078,3.21 ± 0.082
QFVSKLVDNLNAEVVAG [BRR2],2.25 ± 0.042,2.25 ± 0.049,2.22 ± 0.05,2.19 ± 0.041
YYSLNIDYHKTAKETKM [RPN11],2.75 ± 0.067,2.77 ± 0.072,2.87 ± 0.053,2.74 ± 0.06
GVDNLRRMGILKKILDQ [RPO31],2.48 ± 0.1,2.7 ± 0.11,2.4 ± 0.083,2.96 ± 0.04
GGESAYFFQLQIRSADE [RPC11],2.73 ± 0.06,2.88 ± 0.062,2.71 ± 0.06,3.22 ± 0.062
SKMGAPWCVKPEYLAMY [ITC1],2.92 ± 0.057,3.23 ± 0.048,3.1 ± 0.043,3.11 ± 0.058
ITDKTIESIVNLAPKLR [GRR1],2.81 ± 0.081,2.27 ± 0.059,1.83 ± 0.086,2.76 ± 0.037
TFPPEVLARISPELSLQ [RRP43],2.32 ± 0.073,2.87 ± 0.11,2.53 ± 0.081,2.67 ± 0.071
LPRYQELTKEEAMYKLQ [SMC3],3.02 ± 0.12,3.18 ± 0.087,3.43 ± 0.092,3.04 ± 0.073
KCQELVTNIRRIIQDNI [RRP46],2.5 ± 0.15,2.81 ± 0.1,3.08 ± 0.25,1.94 ± 0.11
MIQKVMEYLKSSKSLDL [RPN5],2.6 ± 0.051,1.55 ± 0.039,2.3 ± 0.057,2.46 ± 0.05
GSIGSRKYSFNYSSLPS [YAR002W/NUP60],1.95 ± 0.059,2.39 ± 0.062,2.12 ± 0.081,1.65 ± 0.039
QFIKSNFEKILLTCYEL [SRB8],,3 ± 0.23,,
EFTPADPNLSFESSSSL [SSN2],3.05 ± 0.17,3.09 ± 0.12,2.39 ± 0.16,2.79 ± 0.15
ELIALNLSEARLVIKEA [RPB4],3.01 ± 0.16,,,2.73 ± 0.18
EFNGFSLYQVDPSGSYF [PRE8],2.19 ± 0.057,2.05 ± 0.08,2.1 ± 0.15,2.43 ± 0.077
ECLQAYIFFGPIYYQKL [RET1],2.54 ± 0.077,2.65 ± 0.071,2.24 ± 0.1,2.72 ± 0.05
